From paper PMC8041770, “An engineered ligand trap inhibits leukemia inhibitory factor as pancreatic cancer treatment strategy” (Communications Biology, 2021)

Target: yeast-displayed mouse LIF (mLIF, Ser24 to Phe203) (mouse, UniProt P09056 24-203)
Assay: flow cytometry on cells; LIF displayed on yeast (EBY100), soluble Fc fusion titrated in PBS with 1 mg/ml BSA, Fc detected with fluorescent secondary antibody; apparent Kd by non-linear regression
Conditions: one partner purified

B1: mLIFR-Fc (mouse LIFR CBM I–Ig-like–CBM II fused to an antibody Fc domain) (Fc fusion)
chain: LKRGVQDLKCTTNNMRVWDCTWPAPLGVSPGTVKDICIKDRFHSCHPLETTNVKIPALSPGDHEVTINYLNGFQSKFTLNEKDVSLIPETPEILDLSADFFTSSLLLKWNDRGSALPHPSNATWEIKVLQNPRTEPVALVLLNTMLSGKDTVQHWNWTSDLPLQCATHSVSIRWHIDSPHFSGYKEWSDWSPLKNISWIRNTETNVFPQDKVVLAGSNMTICCMSPTKVLSGQIGNTLRPLIHLYGQTVAIHILNIPVSENSGTNIIFITDDDVYGTVVFAGYPPDVPQKLSCETHDLKEIICSWNPGRITGLVGPRNTEYTLFESISGKSAVFHRIEGLTNETYRLGVQMHPGQEIHNFTLTGRNPLGQAQSAVVINVTERVAPHDPTSLKVKDINSTVVTFSWYLPGNFTKINLLCQIEICKANSKKEVRNATIRGAEDSTYHVAVDKLNPYTAYTFRVRCSSKTFWKWSRWSDEKRHLTTEAT
notes: signal peptide in the construct; mouse LIF receptor (mLIFR), three most N-terminal extracellular domains CBM I–Ig-like–CBM II, Met1 to Thr529; also called soluble mLIFR-Fc; mLIFR mIgG2a Fc; source: Expi293F, transfected (pAdd2), purified from medium (Protein-A Sepharose)
  Kd: 0.16 ± 0.02 nM
